These results are taken from article PMC3684052.

The target in experiment [1] is GST-KRIT1 (residues 170–198), wild type (human) (UniProt O00522). The experiment in a line: SPR.
Experiment [2] deals with GST-integrin β1 fusion protein (residues 752 to 798), wild type (UniProt P05556). The experiment in a line: SPR.

pKd: −log10 of the molar value.

Sequence of GST-KRIT1 (residues 170–198), wild type (human) (O00522 170-198): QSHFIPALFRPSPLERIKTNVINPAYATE
Sequence of GST-integrin β1 fusion protein (residues 752 to 798), wild type (P05556 752-798): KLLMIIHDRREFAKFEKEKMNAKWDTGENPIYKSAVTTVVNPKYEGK

For the substance “ICAP1 (analyte of the surface plasmon resonance) (from UniProt O14713 1-200) (domain or fragment)”, the pKd was 5.91 in experiment [1] and 5.30 in experiment [2].
